B1: SPDEF (parent)
chain: YPEDSSWAAKAPGASSREEPPEEP

Variants of: B1
Test: protein stability index of a GFP-peptide fusion (GPS, HEK-293T) (PSI 1-6); higher = more stable
Conditions: c terminus: a fixed tail appended
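Further: lentivirally expressed fusions sorted by FACS into six bins by GFP to DsRed ratio, PSI derived from sequencing read proportions per bin multiplied by bin number.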

**Q.** For YWEDSSWAAKAPGASSREEPPEEP [P2W], which protein stability index is on record?
**A.** 4.68

**Q.** Which protein stability index does the source give for YPEDSSWAAKAPGASSREEPPAEP [E22A] here?
**A.** 4.38

**Q.** Which protein stability index does the source give for YPIDSSWAAKAPGASSREEPPEEP [E3I] here?
**A.** 4.92

**Q.** For YPEDSSWAAKAPGASSREEEPEEP [P20E], which protein stability index is on record?
**A.** 4.2

**Q.** Which protein stability index does the source give for YPEDSSRAAKAPGASSREEPPEEP [W7R] here?
**A.** 5.96

**Q.** Which protein stability index does the source give for YPEDSSWATKAPGASSREEPPEEP [A9T] here?
**A.** 4.32

**Q.** Which protein stability index does the source give for YPDDSSWAAKAPGASSREEPPEEP [E3D] here?
**A.** 4.24

**Q.** For YPSDSSWAAKAPGASSREEPPEEP [E3S], which protein stability index is on record?
**A.** 2.66

**Q.** Which protein stability index does the source give for YPEDSSWAAKAPGASQREEPPEEP [S16Q] here?
**A.** 2.88

**Q.** Which protein stability index does the source give for YPEDVSWAAKAPGASSREEPPEEP [S5V] here?
**A.** 4.71

**Q.** Which protein stability index does the source give for YPEDSSWAHKAPGASSREEPPEEP [A9H] here?
**A.** 3.4

**Q.** With YPEDSSWAKKAPGASSREEPPEEP [A9K] as the variant, how does the protein stability index read?
**A.** 3.97

**Q.** Which protein stability index does the source give for YPEDSSWAAKHPGASSREEPPEEP [A11H] here?
**A.** 4.13

**Q.** With YPEDSSWAAKAPGASSRCEPPEEP [E18C] as the variant, how does the protein stability index read?
**A.** 2.82

**Q.** For YPEDPSWAAKAPGASSREEPPEEP [S5P], which protein stability index is on record?
**A.** 4.06

**Q.** Which protein stability index does the source give for YPEDSSWAAKAPGASFREEPPEEP [S16F] here?
**A.** 4.2

**Q.** With YPEDSSWAAKAPDASSREEPPEEP [G13D] as the variant, how does the protein stability index read?
**A.** 3.36

**Q.** With YPEDSSVAAKAPGASSREEPPEEP [W7V] as the variant, how does the protein stability index read?
**A.** 5.52

**Q.** For YPEDSSWAAKAPGASSREEPPHEP [E22H], which protein stability index is on record?
**A.** 4.06

**Q.** Which protein stability index does the source give for YPEDSSWAAKAPGPSSREEPPEEP [A14P] here?
**A.** 3.94

**Q.** With YPEDSSWAAKWPGASSREEPPEEP [A11W] as the variant, how does the protein stability index read?
**A.** 3.56

**Q.** Which protein stability index does the source give for YPEDSSWAAKAPGAYSREEPPEEP [S15Y] here?
**A.** 3.1

**Q.** For YPEDSSWAAKAPGASSREERPEEP [P20R], which protein stability index is on record?
**A.** 2.98

**Q.** For YPEDSSWAAKAPGASYREEPPEEP [S16Y], which protein stability index is on record?
**A.** 3.73

**Q.** For YKEDSSWAAKAPGASSREEPPEEP [P2K], which protein stability index is on record?
**A.** 5.1

**Q.** Which protein stability index does the source give for YPEDSSWAANAPGASSREEPPEEP [K10N] here?
**A.** 4.19

**Q.** Which protein stability index does the source give for YDEDSSWAAKAPGASSREEPPEEP [P2D] here?
**A.** 5.73

**Q.** Which protein stability index does the source give for YPEDSSWAAKAPGASSREEPGEEP [P21G] here?
**A.** 4.04

**Q.** Which protein stability index does the source give for YPEDSSWAAKAPGASSREEPPYEP [E22Y] here?
**A.** 3.78

**Q.** With YPEDSWWAAKAPGASSREEPPEEP [S6W] as the variant, how does the protein stability index read?
**A.** 1.27

**Q.** With YPEDSSWAAKAPGASSWEEPPEEP [R17W] as the variant, how does the protein stability index read?
**A.** 4.23

**Q.** With YPEDSSWAAKAPGASSREEPPEED [P24D] as the variant, how does the protein stability index read?
**A.** 4.17

**Q.** With YPADSSWAAKAPGASSREEPPEEP [E3A] as the variant, how does the protein stability index read?
**A.** 2.01

**Q.** With YPEDSSWAAKAPGASSREEPPEER [P24R] as the variant, how does the protein stability index read?
**A.** 3.86

**Q.** With YPEDSSWAAQAPGASSREEPPEEP [K10Q] as the variant, how does the protein stability index read?
**A.** 3.11

**Q.** With YPEDSSWAAKAPGASSREEPPERP [E23R] as the variant, how does the protein stability index read?
**A.** 3.6

**Q.** Which protein stability index does the source give for YPEDSSWAAKAPGASSRESPPEEP [E19S] here?
**A.** 4.97

**Q.** With YPEDSSWAAKAPGASSTEEPPEEP [R17T] as the variant, how does the protein stability index read?
**A.** 4.06

**Q.** For YPEDSSWAAKAPGASSREEPPEEE [P24E], which protein stability index is on record?
**A.** 3.48

**Q.** With YPEDSSWAAKAPGASDREEPPEEP [S16D] as the variant, how does the protein stability index read?
**A.** 4.23

**Q.** For YPEDSFWAAKAPGASSREEPPEEP [S6F], which protein stability index is on record?
**A.** 1.84

**Q.** With LPEDSSWAAKAPGASSREEPPEEP [Y1L] as the variant, how does the protein stability index read?
**A.** 5.79

**Q.** For YPEDSSWAAKAPGASSREEPPEYP [E23Y], which protein stability index is on record?
**A.** 3.65

**Q.** With YPEDSSWAAKAPGASPREEPPEEP [S16P] as the variant, how does the protein stability index read?
**A.** 3.72

**Q.** With YPEDSSWAAKAPGQSSREEPPEEP [A14Q] as the variant, how does the protein stability index read?
**A.** 4.08

**Q.** Which protein stability index does the source give for YPEDSSWADKAPGASSREEPPEEP [A9D] here?
**A.** 5.61

**Q.** Which protein stability index does the source give for YPEDSSWAAKAPGAISREEPPEEP [S15I] here?
**A.** 4.11

**Q.** For YPEISSWAAKAPGASSREEPPEEP [D4I], which protein stability index is on record?
**A.** 3.25

**Q.** With YPEDSSWAAKAPGASSREEPPLEP [E22L] as the variant, how does the protein stability index read?
**A.** 3.92

**Q.** Which protein stability index does the source give for YPEDSSWAAKAHGASSREEPPEEP [P12H] here?
**A.** 4.11

**Q.** Which protein stability index does the source give for YPEDSSWAAKKPGASSREEPPEEP [A11K] here?
**A.** 3.9

**Q.** Which protein stability index does the source give for YPEDWSWAAKAPGASSREEPPEEP [S5W] here?
**A.** 3.99

**Q.** For YPEDSSWAAKAPGASSREEPPVEP [E22V], which protein stability index is on record?
**A.** 4.23

**Q.** For YPEDSSWAAKAPGASSREEPREEP [P21R], which protein stability index is on record?
**A.** 4.25

**Q.** Which protein stability index does the source give for YPEDHSWAAKAPGASSREEPPEEP [S5H] here?
**A.** 3.99

**Q.** For YPEDSSWAAKAPGASSFEEPPEEP [R17F], which protein stability index is on record?
**A.** 4.27

**Q.** With YPEDSSLAAKAPGASSREEPPEEP [W7L] as the variant, how does the protein stability index read?
**A.** 5.68

**Q.** For YPEDSSWAAKAPGASSSEEPPEEP [R17S], which protein stability index is on record?
**A.** 4

**Q.** For YPEPSSWAAKAPGASSREEPPEEP [D4P], which protein stability index is on record?
**A.** 2.09

**Q.** Which protein stability index does the source give for YPEDSSWAAKAPGASSRIEPPEEP [E18I] here?
**A.** 4

**Q.** With YPEDSSWAAKANGASSREEPPEEP [P12N] as the variant, how does the protein stability index read?
**A.** 3.89

**Q.** Which protein stability index does the source give for YNEDSSWAAKAPGASSREEPPEEP [P2N] here?
**A.** 5.78

**Q.** Which protein stability index does the source give for YPEDCSWAAKAPGASSREEPPEEP [S5C] here?
**A.** 3.24

**Q.** With YPEDSSWPAKAPGASSREEPPEEP [A8P] as the variant, how does the protein stability index read?
**A.** 5.38

**Q.** With YPEDSSWAAKAPGASSREELPEEP [P20L] as the variant, how does the protein stability index read?
**A.** 3.11

**Q.** With YPEDSSWAAKAPGASSREEPTEEP [P21T] as the variant, how does the protein stability index read?
**A.** 3.64

**Q.** With YPEDSYWAAKAPGASSREEPPEEP [S6Y] as the variant, how does the protein stability index read?
**A.** 3.85

**Q.** Which protein stability index does the source give for YPEDSSWAAKACGASSREEPPEEP [P12C] here?
**A.** 3.31

**Q.** Which protein stability index does the source give for YPEDSSWAAKAPGAVSREEPPEEP [S15V] here?
**A.** 2.7

**Q.** With YPEDSSWAAKAAGASSREEPPEEP [P12A] as the variant, how does the protein stability index read?
**A.** 4.12

**Q.** Which protein stability index does the source give for YPEDSSWAAKAPGAFSREEPPEEP [S15F] here?
**A.** 2.86

**Q.** Which protein stability index does the source give for YPEDSSWAAKAPPASSREEPPEEP [G13P] here?
**A.** 3.94

**Q.** Which protein stability index does the source give for YPEDSSMAAKAPGASSREEPPEEP [W7M] here?
**A.** 4.42

**Q.** For YPEDSSWAAKAPGASSREETPEEP [P20T], which protein stability index is on record?
**A.** 3.8

**Q.** For YPEDSSWAAKAPGHSSREEPPEEP [A14H], which protein stability index is on record?
**A.** 3.77

**Q.** For YPEDASWAAKAPGASSREEPPEEP [S5A], which protein stability index is on record?
**A.** 4.69

**Q.** Which protein stability index does the source give for KPEDSSWAAKAPGASSREEPPEEP [Y1K] here?
**A.** 5.73

**Q.** With YPEDSSWAAKAPGASSREEPWEEP [P21W] as the variant, how does the protein stability index read?
**A.** 3.66

**Q.** With YPEDSSWAAKLPGASSREEPPEEP [A11L] as the variant, how does the protein stability index read?
**A.** 3.76

**Q.** With YPEDSSWAAKAPGATSREEPPEEP [S15T] as the variant, how does the protein stability index read?
**A.** 3.97

**Q.** Which protein stability index does the source give for YPEDSSWAAKAPGASSREEGPEEP [P20G] here?
**A.** 4.43

**Q.** Which protein stability index does the source give for YPEDSSWAAKAPGASSREEPPGEP [E22G] here?
**A.** 2.79

**Q.** With YPEDSSWAAKAPYASSREEPPEEP [G13Y] as the variant, how does the protein stability index read?
**A.** 3.49

**Q.** With YPEDSSWAAYAPGASSREEPPEEP [K10Y] as the variant, how does the protein stability index read?
**A.** 1.79

**Q.** Which protein stability index does the source give for YPEDSSWAAKAPGASSRQEPPEEP [E18Q] here?
**A.** 3.37

**Q.** Which protein stability index does the source give for YPEDSSWAAKAPGASSREEPKEEP [P21K] here?
**A.** 3.29

**Q.** Which protein stability index does the source give for YPEDSSWAAKAPGASSREEPPEGP [E23G] here?
**A.** 3.9

**Q.** For YPEDSSWAAKAPGASSAEEPPEEP [R17A], which protein stability index is on record?
**A.** 3.11

**Q.** Which protein stability index does the source give for YPEDSSWAAKAPGASAREEPPEEP [S16A] here?
**A.** 3.72

**Q.** For YPEDSSWAAKAPGAKSREEPPEEP [S15K], which protein stability index is on record?
**A.** 3.23

**Q.** Which protein stability index does the source give for YPEDSSWAAKAPGASSHEEPPEEP [R17H] here?
**A.** 4.67

**Q.** Which protein stability index does the source give for YPEDSAWAAKAPGASSREEPPEEP [S6A] here?
**A.** 3.6

**Q.** With YPEDSSWAAKAPGASWREEPPEEP [S16W] as the variant, how does the protein stability index read?
**A.** 3.71

**Q.** Which protein stability index does the source give for HPEDSSWAAKAPGASSREEPPEEP [Y1H] here?
**A.** 5.7
